Assay results as given in patent US20060286112A1.

Target: human VLA-1 (alpha 1/beta 1, CD49a/CD29) on IL-2 stimulated human PBMC / T cells (human) (UniProt P56199)
Test: cell-based or functional assay

Hu IgG4 (antibody)
% adhesion of IL-2 activated T cells to collagen IV vs no antibody, 10 µg/ml, +PMA: 109% | % adhesion of IL-2 activated T cells to collagen IV vs no antibody, 10 µg/ml, -PMA: 106% | % adhesion of T cells to collagen IV vs no antibody, 5 nM mAb, 10 ng/ml PMA: 95.6% | % adhesion of T cells to collagen IV vs no antibody, 5 nM mAb, no PMA: 9.5%
